# Assay: yeast display, Sf9 membrane polyspecificity reagent, FACS + sequencing; frameworks hold sequencing errors
# Summary of the method: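 Sorting gates, low and high (top ~1%), were placed on anti-HA fluorescence to track expression and on streptavidin fluorescence to track reagent binding. A clone's polyreactivity label is taken from the gate it came out of. The reagent was 10% biotinylated, detergent-solubilized Sf9 membrane, applied for 1 hour at 4 °C to galactose-induced yeast display cells.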
row,Sequence,polyreactivity (PSR sort gate)
1,QVQLVESGGGLVQAGGSLRLSCAASGRTFPFYAMGWYRQAPGKEREFVAAITASGDSTYYADSVKGRFTISRDNAKNTVYLQMNSLKPEDTAVYYCAADLPVWYVTRYDYWGQGTQVTVSS,low polyreactivity
2,QVQLVESGGGLVQAGGSLRLSCAASGRTFNLNAMGWYRQAPGKEREFVAAISNSGVRTYYADSVKGRFTISRDNAKNTVYLQMNSLKPVDTAVYYCARTYQVGDSIDDYWGQGTQVTVSS,low polyreactivity
3,QVHLQESGGGLVQAVGSLRLSCAASGNISEYYDMGWYRQAPGKERKFVAGIDFGAITNYADSVKGRFTISRDNAKNTEYLQMRSLKPEDTAVYYCAAGVYDWYAYDYWGQGTQVTVSS,high polyreactivity
4,QVQLVESGGGLVQAGGSLRLSSADSGRIFSYYAMGGYRQAPGKEREFVATITYGGGSTYYADSVKGRFTISRDNAKNTVYLQMNSLKPEDTAVYYCAARGYSYRGWRMDYWGQGSQVTVSS,high polyreactivity
5,QVQLVESGGGLVQAGGSLRLSCAASGFTFTDYAMGWYRQAPAKERELVAVITYDSTYYADSVKGRFTISRDNAKNTVYLQMNSLKPEDTAVYYCAADSYDWGDFDYWGQGTEVTVSS,low polyreactivity
6,QVQLVESGGGLVQAGGSLRLSCAASGSIFYSNAMGWYRQAPGKEREFVAAISAGGGSTYYADSVKGRFTISRDNAKNTVYLQMNSLKPEDTAVYYCAATDEYYIQVWFPYDYWGQGTQVTVSW,low polyreactivity
7,QVQLVESGGGFVQAGGSLRLSCAASGSIFDYYTMGWYRQAPGKEREFVAGISDSGGSTNYADSVKGRFTISRDNAKNTVYLQMNSLKPEDTAVYYCNAEYVGWFYKYDYWGQGTQVTVSS,high polyreactivity
8,QVQLEESGGGLVQAGGSLRLSCAASGRIFATNAMGWYRQAPGKERELVATITRSAGRTYYADSVKGRFTISRDNAKNTVYLHMNSLKPEDTAVYYCASSYWDTEPVYREYDYWGQGTQVTVSS,low polyreactivity
9,QVQLVESGGGLVQAGGSLRLSCAASGIIYYANVMGWYRQAPGKERELVAGISRNGGRTYYADSVKGRFTISRDNAKNTVYLQMNSLKPEDTAVYYCAARGSYTSIFDYWGQGTQVTVSS,high polyreactivity
10,QVQLVESGGGLVQAGGSLRLSCAASGRIFQYYAMGWYRQAPGKERELVASISGRGGRTYYADSVKGRFTISRDNAKNTVYLQMNSLKPEDTAVYYCNAVFSTIRYIRSYNYWGQGTQVTVSS,high polyreactivity
11,QVQLVESGGGLVQAGGSLRLSCAASGFTISLYTMAWYRQAPGKERELVASNTRRGGSTYYADSVKGRFTISRDYAKNTVYLQMNSLKTEDTAGYYCARAARSDSIFKPRRGYATDGYWGQVTQVTVSS,high polyreactivity
12,QVQLVESGGGLVQAGGSLRLSCAASGIIFLQYAMGWYRQAPGKERELVAAITRRGDRTYYADSVKGRFTISRDNAKNTVYLQMNSLKPEDTAVYYCAASYWYRDYYYWGQGTQVTVSS,high polyreactivity
13,QVQLVESGGGLVQAGGSLRLSCAASGRTFGDYAMGWYRQAPGKERELVAAISSSGGRTYYADSVKGRFTISRDNAKNTVYLQMNSLKPEDTAVYYCATDYLYVYGFEYYYWGQGTQVTVSS,high polyreactivity
14,QVQLVESGGGLVQAGGRLRLSCAASGFTFYNYAMGWYRQAPGKERELVAAISWSGGSTHYADSVKGRFTISRDNAKNTVFLQMNSLKPEDTAVYYCAKVGVLGYYTYYYWGQGTQVTVSS,low polyreactivity
15,QVQLVESGGGLVQAGGSLRLSCAASGSTYVSNAMGWYRQAPGKERELVAAISKSGGSTYYGDSVKGRFSISRDTAKNTVYLQMNSLKPEDTAVYYCAASPARYWYGGKEYDYWGQGTQVTVSS,high polyreactivity
16,QVQLVESGGGLVQAGGSLRLSCAASGRIFWRNAMGWNRQAPGKERELVAAISSGGSTYYADSVKGRFTISRDNAKNTVYLQMNSLKPEDTAVYYCAARSSWRGGSYDHFERDYWGQGTQVTVSS,high polyreactivity
17,QVQLVESGGGLVQAGGSLRLSCAASGNTFGRYAMGGYRQAPGKERELVAAISWSGGSTYSADSVKGRFTISRDNAKNSLYLQMNSLKPEDTAVYYCAANSWRGFEYWGQGTQVTVSS,high polyreactivity
18,QVQLVESGGGLVQAGCSLRLSCAASGSIFAAYPMGWYRQAPGKERELVAAISRSCGSTYYADSVKGRFTISRDNAKNTVYLQMNSLKPEDTAVYYCAADTYGYRHDNYDYWGQGTQVTVSS,low polyreactivity
19,QVQLVESGGGLVQAGGSLRLSCAASGRTFRSNAMGWYRQAPGKERELVATISRRGVSTYYADSVKGRFTISRDNAKNTVYLLMNSLKPEYTAVYYCTLNVGTTSRWSYDYWGQGNQVTVSS,high polyreactivity
20,QVQLVESGGGLVQAGGSLRLSCAASGPTFYYYAMGWYRQEPGKERELVAAIRVRGGSTYYADSVKGRFTISRDNAKNTVYLQMNSLKPEDTAVYYCAADHTFYGVHKYDYWGQGTQVTVSS,low polyreactivity
21,QVQLVESRGGLVQAGGSLRLSCAASGSIFNYNAMGCYRQAPGKEREFVAAINQGGTSTYYADSVKGRFTISRDNANHTVYLQMNSLKPEDTAVYYCAALITVYRGSYEYCGQGTQVTVSS,low polyreactivity
22,QVQLVESGGGLVQAGGSLRLSCAASGFTIYLYTMGWYRQAPGKERELVAAITSSGTRTYYADSVKGRFTISRDNAKNTVYLQMNSLKPEDTAVYYCNAARYGRHLSTYDYWGQGTQVTVSS,high polyreactivity

row,Sequence,polyreactivity (PSR sort gate)
1,QVQLVESGGGLVQAGGSLRLSCAASGRIFWINALGWYRQAPGKERELVAAISWRGDSTYYADSVKGRFTISRDNAKNTVYLQMNSLKPEDTAVYYCAATWYSWGSEFDYWGQGTQVTVSS,high polyreactivity
2,QVQLVESGGGLVQAGGSLRLSCAASGRIFIRNAMGWYRQAPGKERELVAAISRSGGRTYYADSVKGRFTISRDNAKNTVYLQMNSLKQEDTAVYYCARTTPYFNVDCGGYDYWGQGTQVTVSS,high polyreactivity
3,QVQLVESGGGLVQAGGSLRLSCAASGSTFEDYAMGWYTQAPGKERELVAAINKTGGSTNYADSVKGRFTISRDNAKNTVYLQMNSLKPEDTAVYYCAADGSNYSASVAAFPYRVVYWGQGTQVTVSS,low polyreactivity
4,QVQLVESGGGLVQAGGSLRLSCAASGSIFQGYPMGWYRQAPGKERELVATIRWSSGSRTNYADSVKGRFTISRDNAKNTVYLQMNSLKPEDTAVYYCAAGSRRYKYDYWGQGTQVTVSS,high polyreactivity
5,QVQLVESGGGLVQAGGSLRLSCAASGSTSVVNTMGWYRQAPGKERELVAAISWSGGSTYYADSVKGRFTISRDNAKNTVYLQMNSLKPEDTAVYYCNAQRNFKSITEYDYWGQGTQVTVSS,high polyreactivity
6,QVQLVESGGGLVQAGGSLRLSCAASGSIFDWYAMGCYRQAPGKEGELVAAISSGDSTYYADSVKGRFTISRDNAKNTVYLQMNSLKPEDTAVYYCAAVTKLSGIRYNYWGQGTQVTVSS,low polyreactivity
7,QVQLVESGGGLVQAGGSLRLSCAASGRTFTYNAMGWYRQAPGKERELVATINTSGASTSYADSVKGRFTISRDNAKNTVYLQMNCLKPEDTAVYYCNRDRRYYHRFDYWGQGTQVTVSS,low polyreactivity
8,QVQLVESGGGLVQAGGSLRLSCAASGFILYDNTMGWYRQAPGKEREFVAAIRDSGGSTYYADSVKGRFTISRDNAKNTVYLQMNSLKPEDTAVYYCNTYGSGTHSTGYDYWGQGTQVTVSS,low polyreactivity
9,QVQLVESGGGLVQAGGSLRLSCAASGSIFVNNAMGWYRQAPGKERELVAAIRRGSSTNYADSVKGRFTISRDNAKNTVYLQMNSLKPEDTAVYDCAADHDDDEAQNYDYLGQGTQVTVSS,low polyreactivity
10,QVQLVESGGGLVQAGGSLRFSCAASGSIFRVNAMGWYRQAPGKERELVAAITDGGITNYADSVKGRFTISRDNAKNTVYLQMNSLKPEDTAVYYCAADTDRDFHYVVPTYDYWGQGTQVTVSS,low polyreactivity
11,QVQLVESGGGLVQAGGSLRLSCAASGSIFYYYAMGWYRQAPGKERELVAAISSGGSTNYADSVKGRFTISRDYAKNTVYLQMNSLKPEDTAVYYCAADYRAQYVVWYTYDYWGQGTQVTVSS,low polyreactivity
12,QVQLVESGGGLVQAGGSLRLSCAASGIIFSFNAMGWYRQAPGKERELVAAITWRDGSTYYADSVKGRFTISRDNAKNTVYLQMNSLKPEDTAVYYCNADLLDISSYDGMDYWGQGTQVTVSS,low polyreactivity
13,QEQLQESCGGLVLAGGSLRLSCASSGSISAQAYMGWDRQAPGKEREHVAGINYGDNTNYADSVKGRFTISRDNEHRVSADEQPETGRYRGVLLRGFLELFYYYIYWGQGTQVTVSS,high polyreactivity
14,QLQLVESGGGLVQAGGSLRLSCAASGSTFHYYDMGWNRKATGKERELVAAISSGGDSTYYADSVKGRFTISRDNAKNTVYLQMNSLKPEDTAVYYCAAAVYYGQSVWYYYWGQGTQVTVSS,high polyreactivity
15,QVQLVESGGGLVQAGGSLRLSCAASGSIFILYAMVWYRQAPGKERELVAAISSTGTTYYADSVKGRFTISRDNAKNTVYLQMNSLKPEDTAVYYCATDEPSSGRTPYDYWGQGTQVTVSS,low polyreactivity
16,QVQLVESGGGLVQAGGSLRLSCAASGYTFATYTMGWYRQAPGKERELVAAITGGGGSTSYADSVKGRFTISRDNAKNTVYLQMNSLKLEDTAVYYCNAGISVDYSLEKYDYWGQGTQVTVSS,low polyreactivity
17,QVQLVESGGGLVQAGGSLRLSCAASGSIFSRYAMGWYRQAPGKERELVAAITSSGGRTYYADSVKGRFTISRDNAKNTVYLQMNSLKPEDTAVYYCAAEYYYIVTYDFGYWGQGTQVTVSS,low polyreactivity
18,QVQLVESGAGLVQAGGSLRVSCAASGSTFDSYAMGLYRQAPGKERELVAAITNGGSTYYADSVKGRFTISRDHAKNTVYLQMNRLKPEDTAVYDCATEDYLLDYLYDYWGPGTQVTVSS,low polyreactivity
19,QVHLVESGGGLVQAGGSLRLSCAASASTFQSNAMGWYRQAPGKERELVATITQSGATTYYADSVKGRFTISRDYAKNTVYLQMNSLKPEDTAVYYCNVDTFQKRWFWLDLDGGYWGQGTQVTVSS,low polyreactivity
20,QVQLVESGGGLVQAGGSLRLSCAASGGTFSPYAMGWYRQAPGKERELVAVIRSDVTTNYADSVKGRFTISRDNAKNTVYLQMNSLKPEDTAVYYCAVQYLGYGGLFPLDYWGQGTQVTVSS,low polyreactivity
21,QVQLVESGGGLVQAGGSLRLSCAASGSTFLGYVMGWYRQAPGKEREFVAAITWSVGSTYYADSVKGRFTISRDNAKNTVYLQMNSLKPEDTAVYYCAVRWVYANIYPDMEYWGQGTKVTVSS,low polyreactivity
